Assay results as given in US20260216242A1, “ALPP-SPECIFIC VARIANT ANTIGEN BINDING MOLECULES” (ALMAC DISCOVERY LIMITED, priority 2022, published 2026).

T1: ALPI His homodimer (Homo sapiens, UniProt P09923)
T1 sequence (P09923 with tags, fused parts or gaps): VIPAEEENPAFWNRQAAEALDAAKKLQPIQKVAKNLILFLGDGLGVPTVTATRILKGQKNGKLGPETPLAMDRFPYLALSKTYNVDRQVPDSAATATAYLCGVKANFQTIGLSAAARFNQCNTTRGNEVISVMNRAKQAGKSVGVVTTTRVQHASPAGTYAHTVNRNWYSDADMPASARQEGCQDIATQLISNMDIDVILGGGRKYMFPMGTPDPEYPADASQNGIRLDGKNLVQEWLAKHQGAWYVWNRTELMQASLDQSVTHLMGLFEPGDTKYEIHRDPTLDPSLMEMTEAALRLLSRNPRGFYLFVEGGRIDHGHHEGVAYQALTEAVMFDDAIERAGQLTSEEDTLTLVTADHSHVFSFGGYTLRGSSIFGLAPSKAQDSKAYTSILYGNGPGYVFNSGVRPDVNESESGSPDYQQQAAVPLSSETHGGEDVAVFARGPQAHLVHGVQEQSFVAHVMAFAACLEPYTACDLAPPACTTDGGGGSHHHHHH


Key:
[1] = target: T2, ALPP (Homo sapiens, UniProt P05187); test: BLI binding kinetics, human ALPP immobilised on AR2G sensors (KD / KD apparent); settings: for hALPP Ka / hALPP Kd: VHH domains
Method: Binding kinetics were determined using the Biolayer Interferometry (BLI) Octet K2 system (Sartorius). Human ALPP, ALPPL2, ALPL (each fused with a cysteine stabilised leucine zipper) and ALPI, (SEQ ID NO: 265, SEQ ID NO: 266 and SEQ ID NO: 267 and SEQ ID NO: 264 respectively) were immobilised in sodium acetate pH5 buffer to AR2G sensors using amine coupling. All assays were conducted in PBS with a plate temperature of 25° C. Ka (M^−1s^−1), Kd (s^−1) and KD (nM) values were determined using Octet Data Analysis High Throughput software (ForteBio) for Biolayer Interferometry.
(§1) Binding kinetics were determined using the Biolayer Interferometry (BLI) Octet K2 or R4 system (Sartorius). Human ALPP, ALPPL2 and ALPL all fused with a disulphide stabilised leucine zipper (SEQ ID NO: 265, SEQ ID NO: 266, and SEQ ID NO: 267) and ALPI His (SEQ ID NO: 264) were used in BLI experiments. For KD apparent measurements, the ALPP proteins were immobilised in sodium acetate pH5 buffer to AR2G sensors using amine coupling. To measure 1:1 interactions, AHC biosensors were used to immobilise Fc-fused proteins. All assays were conducted in HBS-EP with a plate temperature of 25° C. Ka (M^−1s^−1), Kd (s^−1) and KD (nM) values were determined using Octet Data Analysis High Throughput software (Sartorius) for Biolayer Interferometry.
as §1, with “NO:264)” for “NO: 264)”

[2] = target: T1, ALPI His homodimer; test: ELISA binding to ALPI; settings: 500 ng purified VHH
Method: ELISA was used to test the binding and specificity of the VHHs. ALPP CysHis (SEQ ID NO: 263), ALPI His homodimer (SEQ ID NO: 264) or BSA (Thermo Fisher) were coated onto plates and 500 ng of each purified VHH added. Anti-Llama—HRP antibody was used for detection.

[3] = Thermal stability (Protein Thermal Shift assay); format: physicochemical; settings: VHH domains, first derivative analysis
Method: Thermal stability assays used Applied Biosystems StepOne Real Time PCR system with the Protein Thermal Shift™ dye kit (Thermo Fisher). The assay mix was set up so that the protein was at a final concentration of 20 µM in 20 μL. 5 μL of Thermal Shift™ buffer was added alongside 2.5 μL 8× Thermal Shift™ Dye. Assays were run using the StepOne software and data analysed using Protein Thermal Shift™ software. All data are from first derivative analysis.

[4] = target: T2, ALPP; test: Epitope binning by BLI competition assay; format: binding; settings: BLI competition on immobilised ALPP
Method: To determine epitope cross reactivity BLI competition assays were conducted. AR2G sensors were used and ALPP immobilised as above. ALPP sensors were then dipped into a well containing a saturating concentration of the initial binder for ten minutes to get an association curve. The sensor was then dipped into a well containing the same concentration of initial binder plus 20 nM of a secondary binding.
An increase in the association curve was indicative that the second VHH bound to a distinct epitope from the initial binder. Monomers with identical CDR3s were grouped as likely to be in the same epitope bin and only one from each group used in the epitope binning experiment.

T2 sequence (P05187 with tags, fused parts or gaps): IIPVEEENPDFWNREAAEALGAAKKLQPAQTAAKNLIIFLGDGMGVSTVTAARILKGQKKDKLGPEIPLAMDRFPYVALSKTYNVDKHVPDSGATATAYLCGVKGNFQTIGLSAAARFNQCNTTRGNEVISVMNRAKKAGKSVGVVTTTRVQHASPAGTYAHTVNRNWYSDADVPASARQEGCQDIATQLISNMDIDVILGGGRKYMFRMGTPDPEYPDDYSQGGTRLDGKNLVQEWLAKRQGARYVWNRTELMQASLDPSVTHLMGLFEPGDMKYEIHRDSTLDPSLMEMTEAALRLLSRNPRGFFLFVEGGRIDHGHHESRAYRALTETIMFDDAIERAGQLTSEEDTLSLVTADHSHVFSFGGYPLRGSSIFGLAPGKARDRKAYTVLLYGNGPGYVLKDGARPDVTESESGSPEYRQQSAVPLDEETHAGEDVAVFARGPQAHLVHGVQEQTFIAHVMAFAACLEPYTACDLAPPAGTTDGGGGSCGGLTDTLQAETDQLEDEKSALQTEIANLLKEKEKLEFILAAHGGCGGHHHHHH

Row | hALPP Ka [1] | hALPP Kd [1] | ELISA hALPI [2] | epitope bin [4] | Kd ([1]; VHH domains (His-tagged monomers), PBS, 25° C., read-out: hALPP KD) | Molecule | Tm [3]
1 | 213000 M⁻¹ s⁻¹ | 0.000017 s⁻¹ | No Binding | one | – | B11: ALPP targeting VHH domain, SEQ ID NO: 22 (protein) VHH: QVHLVESGGGSVQAGGSLRLSCAASGPSLSNYAMGWFRQAPGKEREFVAGISWGGGRTSYTDSVKGRFTISRDNAKNTVYLQMNNLKPEDTGVYYCAGRYGRGRNVEYEYDYWGQGTQVTVSS | 77.4 °C
2 | 47400 M⁻¹ s⁻¹ | <1e-07 s⁻¹ | No Binding | one | < 0.01 nM | G03: ALPP targeting VHH domain, SEQ ID NO: 38 (protein) VHH: QVQLVESGGGTAQAGGSLRLACAASGRSVTMGWLGWVPRAERDDLEFITWFNWGTYYANSVNGRFTISTDNADNTVYPQMNRLKPENPAVYYCASFTGYRPLINRLNDVSDCGHGALVAVSS | 74.0 °C
